# Measurements from the DeepSol protein solubility set.
# Experiment: soluble on expression in E. coli; label from the status in PepcDB or PDB records
row,Sequence,soluble on expression in E. coli
1,MQGRVKWFNAEKGFGFIEREDGDDVFVHFSAIQQDGYKSLEEGQQVEFDIVDGARGPQAANVVKL,not soluble
2,MGSDKIHHHHHHVLETFETVAKAVADPNRVRILKLLESGELCVCQITAVLDLAAATVSKHLSLLKAAGLLQQRREGKWAYYRLADRALNPYAPAFLGLIGATLADDPTLTEDARILSKVNALPLQVLCDQGRAALDLTRPTSPAPSCCGTPMMTETSFNVLFLCTGNSARSILAESILNREGAGKFRAYSAGSHPKGQIDPTVLALLKKTNHPTETLRSKSWDEFAAPGAPTLDFVFTVCDNAAGEVCPIWPGQPMTAHWGVPDPAGFVGSEAEKAAFCGEVMRLLRTRISIFAALPIASLDRLSLQRRLKEIGKVALESRETRESGVL,not soluble
3,MGHHHHHHSHMSAPIVDAPAAEIVYKIISSDGVVSKMSEKAVQQSKTLSNLIENLGYTIENIETRDPIPVTNVNGKTMAKVAEWCEKHKADAIPEDNMNVLKTLTIPEWDQKFLKIEDEALFDLILASNFLDIKGLMYFGCKTVSNMAKGKTTAELREIFGINTDEQDAAEETAQRAAAEVA,soluble
4,AHHHHHHGSVRVAIIGQGYVASIFAVGLERIKEGELGYYGIPLANELPIKVEDIKIVASYDVDKTKIGLPLSEIVQRYWKGNVPESLQEVFVRKGIHLGSLRNLPIEATGLEDEMTLKEAIERLVEEWKEKKVDVIINVPTTEAFTPFGKLEELEKAIKDNNKERLTATQAYAYAAAQYAKEVGGAAFVNAIPTLIANDPAFVELAKESNLVIFGDDGATGATPLTADILGHLAQRNRHVLDIVQFNIGGNTDFLALTDKERNKSKEYTKSSVVEDILGYDAPHFIKPTGYLEPLGDKKFIAMHIEYISFNGARDELIIAGRINDSPALAGLLVDLARLGKIAVDKKEFGTVYPVNAFYMKNPGPKEAKNIPRIIAYEKLRQWAGLPPRYL,soluble
5,MQIDDALLQRLEKLSMLEIKDEHKESVKGHLAEVLGFVENIFALETSALKTDIELCTPLREDEPKSQPNTAKEILSQNKHSQDHYFVVPKIIE,not soluble
6,MRGSHHHHHHGMASMSVSTASTEMSVRKIAAHMKSNPNAKVIFMVGAGISTSCGIPDFRSPGTGLYHNLARLKLPYPEAVFDVDFFQSDPLPFYTLAKELYPGNFRPSKFHYLLKLFQDKDVLKRVYTQNIDTLERQAGVKDDLIIEAHGSFAHCHCIGCGKVYPPQVFKSKLAEHPIKDFVKCDVCGELVKPAIVFFGEDLPDSFSETWLNDSEWLREKITTSGKHPQQPLVIVVGTSLAVYPFASLPEEIPRKVKRVLCNLETVGDFKANKRPTDLIVHQYSDEFAEQLVEELGWQEDFEKILTAQ,soluble
7,STPETLPGHTKAKQPYREDTEWLKGQQIGLGAFSSCYQAQDVGTGTLMAVKQVTYVRNTSSEQEEVVEALREEIRMMSHLNHPNIIRMLGATCEKSNYNLFIEWMAGGSVAHLLSKYGAFKESVVINYTEQLLRGLSYLHENQIIHRDVKGANLLIDSTGQRLRIADFGAAARLASKGTGAGEFQGQLLGTIAFMAPEVLRGQQYGRSCDVWSVGCAIIEMACAKPPWNAEKHSNHLALIFKIASATTAPSIPSHLSPGLRDVALRCLELQPQDRPPSRELLKHPVFRTTW,soluble
8,MSLSWRNRIQIFLAPDRVDLTGIARGIRPVQQFRQSGVCVQENDSRQQWKAPLRLLEQMIGQMDDRFRRGSELHITLSNHFVRYGVIAPQPSLANPDELMAYAGFQMREIYGERIDDWELSLSTWDPYGGALCAAIARDLQSELIMFARQYDTRFACIEPYLAAALDHWSKRLVEKQVWFVLVETGRFCLVVLSEGAWRCARNQRVVENLQEELLAALEQESIILSPDRSVERVYVFAPELTGQLPVHDLRWQFVRLPDEKHPAPSYFPGVTGMDDSQNH,not soluble
9,SPAPPACDLRVLSKLLRDSHVLHSRLSQCPEVHPLPTPVLLPAVDFSLGEWKTQMEETKAQDILGAVTLLLEGVMAARGQLGPTCLSSLLGQLSGQVRLLLGALQSLLGTQLPPRGRTTAHKDPNAIFLSFQHLLRGKVRFLMLVGGSTLCVRRAPPTTAVPS,soluble
10,DGPGDGFTILSSKSLVLGQKLSLTQSDISHIGSMRVEGIVHPTTAEIDLKEDIGKALEKAGGKEFLETVKELRKSQGPLEVAEAAVSQSSGLAAKFVIHCHIPQWGSDKCEEQLEETIKNCLSAAEDKKLKSVAFPPFPSGRNCFPKQTAAQVTLKAISAHFDDSSASSLKNVYFLLFDSESIGIYVQEMAKL,soluble
11,IVSFYQEQIIRSALALKLHQYEDTGGIIAAGTTSLPESDGATRNWDYRYCWMRDTYYTLQAFNTIGHFEESEKYFHYIENIVANELDRIQPLYTLDCSKKIEEIELDLEGYKGNKPVRVGNDAYTHIQNDVYGQILASITPLFTDRRLLHGNQFSTDIVYKLLAFIDKTMNEKDAGLWEFRHLKQLHCYTFLFHWVGAKSALKIGQLYGDHELIRKSTATIDKAAEMIERCYDPVRKVYTQAVGSTYLDASCIQLISMHYLDPSSEKARLHLKAIEEDLMVKDGLLFRYKHEDDFGKPEVTFLVCAFWYVDALASVGRIDDAIKAFESLLTYTNHVGLLSEDVGLDGSQWGNFPQTYSHVGLMNSAYRIAKKLDRPS,not soluble
12,MAHHHHHHMGTLEAQTQGPGSMTAQSGLLQGKRGLILGVANNRSIAWGIAKAAREAGAELAFTYQGDALKKRVEPLAEELGAFVAGHCDVADAASIDAVFETLEKKWGKLDFLVHAIGFSDKDELTGRYIDTSEANFTNTMLISVYSLTAVSRRAEKLMADGGSILTLTYYGAEKVMPNYNVMGVAKAALEASVKYLAVDLGPQNIRVNAISAGPIKTLAASGIGDFRYILKWNEYNAPLRRTVTIDEVGDVGLYFLSDLSRSVTGEVHHADSGYHVIGMKAVDAPDISVVKD,soluble
13,MIKKVVNLIMTKERRTFSSEFKLQMVRLYKNGKLKNEIIRKYDLKPSIISNSIKQHQNTGPFNHQDNLKSDEKELIKLRKEVQHLKMEHDVLKQILKLILEHHHHHH,not soluble
14,MQEIIFIDEGSFPTPEGVTREWVQGAAENRDEDEKLFSIIREAFQIKIDAGVQVPTYPQFRDMIGQFFDIIKDEKNCHEPYVLKEERATILELEAIDEVAKQYKIETGKTLEVRVCIAGPTDMYYQAFGATAFVDVYDILAKDIEKFIKQAFKTAKNFKIKVIALDEIGLGLNDKIQFSDDEIISALTVASTFARQQGADVEIHVYSPLKYELICETPINVIGFEYAGNPSYIDLLDRKVLEDSDAYAGVGISRTDIFSLISIVNEKYGINAWKDKEYMQKIVTELETPDIIKKRLETAYSVLGDRIKYANPDCGLAFWPDQELAFRLLENTAKAVNEFNAEGIINKAAALEHHHHHH,not soluble
15,MALGLKCFRMVHPTFRNYLAASIRPVSEVTLKTVHERQHGHRQYMAYSAVPVRHFATKKAKAKGKGQSQTRVNINAALVEDIINLEEVNEEMKSVIEALKDNFNKTLNIRTSPGSLDKIAVVTADGKLALNQISQISMKSPQLILVNMASFPECTAAAIKAIRESGMNLNPEVEGTLIRVPIPQVTREHREMLVKLAKQNTNKAKDSLRKVRTNSMNKLKKSKDTVSEDTIRLIEKQISQMADDTVAELDRHLAVKTKELLG,soluble
16,MKHHHHHHGKAAGVTLGEVWKRQLNMLGKQEFERYKVSDITEVDRTAARRYLKEGRTDVGISVSRGAAKIRWLHERGYLRITGRVLDLGCGRGGWSYYAAAQKEVMSVKGYTLGIEGHEKPIHMQTLGWNIVKFKDKSNVFTMPTEPSDTLLCDIGESSSNPLVERDRTMKVLENFERWKHVNTENFCVKVLAPYHPDVIEKLERLQLRFGGGIVRVPFSRNSTHEMYYISGARNNITHMVNTTSRSLLRRMTRPSGKAIIEGDVFLPTGTRSVASEAGTIDHEALKLRVDQIKAEYSKT,soluble
17,MLDSKLKAPVFTVRTQGREYGEFVLEPLERGFGVTLGNPLRRILLSSIPGTAVTSVYIEDVLHEFSTIPGVKEDVVEIILNLKELVVRFLNPSLQTVTLLLKAEGPKEVKARDFLPVADVEIMNPDLHIATLEEGGRLNMEVRVDPGVGYVPAEKHGIKDRINAIPVDAVFSPVRRVAFQVEDTRLGQRTDLDKLTLRIWTDGSVTPLEALNQAVEILREHLTYFSNPQAAAVAAPEEAKEPEAPPEQEEELDLPLEELGLSTRVLHSLKEEGIESVRALLALNLKDLKNIPGIGERSLEEIKEALEKKGFTLKE,soluble
18,MGSDKIHHHHHHMTRYQHLAGLLEQRIEQGLYQSGERLPSVRALSTEHGVSISTVQQAYHLLETRQLIMPQPRSGYFVTPRKATPPVPALTRPAQRPVEITQWESVLELVNVRLETNVLKFGSGMPDVSQPTIKPLWKEMSRLCQYQDPRVLQYDSVYGVPALREQIARLTVDCGCQLNQDDIVITTGCQEALFVAVRAVCQPGDIVAVESPAFPGTMQILRGLDIKAIEIPTDSVTGISLEALRLALDQWPVKAVLLVPSCNNPLGFIMPDARKKSLVTLAQHFDIAIIEDDAYGELAYEYPRPRAIKSFDEDGRVLLCSSFSKNLAPGLRVGWIAPGRYLERVIHTKYISTGSTVVQPQLAVAEFIRRGHYQPHLRRMRAQYKANLDIFTCWVREYFPSNICVSRPQGGFLVWIELPEYFDSLKLAREVRKAGIQIAAGSLFSASGKYRNCIRLNYANRFTEEMREGLRIVGSEVAKMMHTLPDQSAP,not soluble
19,MSLNSKKETINIGCSLPLTGEGANYGRSVKEGVDLAIEEINQSEMFDLPLKVIYEDDKMDPREGVNAINKLITADNVPIIIGPFGSSITLAVAPIANKNKVVLLGASATADNIKDAGDYIFRITPPNSKQGNDVASFCFNSLNSKKAAIIYQTNDYGTTLKTAFESEYLKLGGEVLIVEGVDLGNKDFKTQILKIKSKQVDVVFFPLHVAESGNFLKQSKELGLNVKFISCDGAMVDDLLKLAGNAAEGTYYTSLALAYGMNDSLINSFNTNFKKKYNKEPDVYAAYYYEVTYILAHALKKANGNIGQIKEILYSINGENAYNGITGLTSFDTYGEVDKSFSIYVVSNNKFSLFKEGHHHHHH,soluble
20,MGSDKIHHHHHHMIDMNLILKKKFQEISEVDDFISKASTETDYFEPSTLSHGIPGIILFLDAYQKVFDINTEQIVHKYIMKLAPYLQSGQYNNSLFGGLSGIAFSMDLASQNGKNYQNILNNIDGHIVNEIENKFDQILQEPLNPLNYDTVSGLAGIGRYLLNRVDENEFNVKALKSILVYFKDIQYSKNSWVVPQESQFLESDKNYFTEGNINLGLAHGVLGPMSLFALCVIKGITIENHQHILKDMYKFIMDEKFCNHERWLQRYDLISERNHFNFIRNGWCYGNTGVMTTLFLIGQALYYYEIIKMSKKVMLQVVNDKDENLISPTICHGLSSQILMLTIMNLNFELNEVSDYITVLINKLISHYKEDYLVNFIDINENKQDVFKSRKVGLLEGELGVYLTLMTLKNTKILNEKNWTNAFLIS,not soluble
21,MKPNIHPEYRTVVFHDTSVDEYFKIGSTIKTDREIELDGVTYPYVTIDVSSKSHPFYTGKLRTVASEGNVARFTQRFGRFVSTKKGA,soluble
22,MASAVQAQHNVSDVSRMNVLFLMADDMRPELGCYGVEAVKTPNMDRLASSGVLFQNAYCNVPVSGASRASLLTGVYPHYPDRFVNFSAYASKDCPEAIPLSGWFTKNGYHTVSDGKVFHHMSDHAASWSEPPYRNHPDGYDVYWAEYNKWELWMNSESGKTINPKTMRGPFCESADVPDTAYDDGKLAERAIRDLRRMKEMNKPFFLACGFWKPHLPFNAPKKYWDLYKREEIPLASNRFRPEGLPEQVRNSSEIYAYARVTDTGDADFQREVKHGYYACLSYVDAQIGKVLDALDELGLAENTIVVLLGDHGWNLGEHDFVGKHNLMDRSTHVPLIIRVPGMKKGKTRSMVEFVDLYPTLCELCQIPQPAEQLDGQSFAKVFSNLKAKTKDEVYIQWEGGDNAVDQRFSYAEWMKGDVKKASMLFDHRIDKEENKNRVNEKKYKSKVESLSSFIKVKKSSLKKLEHHHHHH,not soluble
